These results are taken from patent publication US20240209089A1 (SUZHOU SMARTNUCLIDE BIOPHARMACEUTICAL, published 2024).

One assay addresses T1, CD8α-Fc fusion protein (human).
T1 construct: also called CD8 α-Fc protein; CD8α-Fc tag antigen
In words: phage ELISA on coated CD8α-Fc. How it is done: After 3-4 rounds of panning, 96 clones were randomly picked from the plate subjected to the last round of panning for identification. 96 single colonies were randomly picked and respectively cultured to produce and purify phages. The plate was coated with CD8α-Fc fusion protein at 4° C. overnight, then blocked with 3% BSA, and reacted for 1 hour at 37° C. Subsequently, the phage supernatant obtained after infection was added into each well (the control group was blank phage), and incubated for 1 hour at 37° C. After PBST washing, horseradish peroxidase labeled anti-M13 secondary antibody (purchased from Beijing Yiqiao Shenzhou Biotechnology Co., Ltd.) was added, and reacted for 1 hour at room temperature. After washing, a tetramethylbenzidine (TMB) chromogenic solution was added and an absorption value at 450 nm was read. Meanwhile, the plate was coated with an Fc protein at 4° C. overnight, blocked with 3% BSA, and reacted for 1 hour at 37° C. After washing, the phage supernatant obtained after infection (the control group was blank phage) was added to react for 1 hour at 37° C. After washing, the horseradish peroxide labeled anti-M13 secondary antibody (purchased from Beijing Yiqiao Shenzhou Biotechnology Co., Ltd.) was added to react for 1 hour at room temperature. After that, a TMB chromogenic solution was added and an absorption value at 450 nm was read. Where, when a ratio obtained by an OD value being divided by an OD value of blank control was >=4, it was judged that a candidate antibody could bind the CD8α-Fc protein; meanwhile, a ratio obtained by the CD8α-Fc binding OD value of the above antibody capable of binding the CD8 α-Fc antigen protein being divided by the Fc protein binding OD value was >=5, it was considered that the candidate antibody could specifically bind the CD8α part rather than the Fc part. […] The bacteria in candidate clone well were transferred to an LB liquid culture medium containing 100 μg/mL ampicillin so as to perform plasmid extraction and sequencing.

Assay [1] concerns the target T2, human CD8α full-length protein (human, UniProt P01732 22-235).
T2 construct: whole, on cells; The same entry is used for MC38-CD8α transfectants and for human CD8+ T cells from peripheral blood; the assay field says which cells; also called cell surface CD8α; MC38-CD8α cells
Put plainly: flow cytometry on MC38-CD8α cells, secondary antibody-PE. How it is done:
Mouse colon cancer MC38 cell lines stable transfected with human CD8α full-length protein gene were constructed to obtain MC38 cells (MC38-CD8α cells) stably expressing human CD8α proteins on the cell membrane. Prior to use, the cells were cultured to >90% convergence. The anti-CD8α single domain antibody was used to perform flow cytometry on these cells for quantitative analysis of indirect immunofluorescence staining so as to determine the quantity of receptors on surface of each cell.
The cells were collected and suspended to a concentration of 2.5×10⁶ cells/mL. 200 μL of cell aliquot samples were mixed with 20 μL of primary antibody, and the obtained mixture was incubated for 30 min on ice. The cells were centrifuged, washed and re-suspended, then 5 μL of secondary antibody-PE conjugate was added, and then the above mixture was incubated for 30 minutes on ice. The cells were washed twice, re-suspended and underwent flow cytometry on BD FACSCelesta™. For each tube, at least 5×10⁴ events were collected. All the analyses were single colors, and PE was detected in […].
In general terms: A flow cytometer gives signals particle by particle.

Changes are numbered by the printed parent chain.

T2 sequence (P01732 22-235): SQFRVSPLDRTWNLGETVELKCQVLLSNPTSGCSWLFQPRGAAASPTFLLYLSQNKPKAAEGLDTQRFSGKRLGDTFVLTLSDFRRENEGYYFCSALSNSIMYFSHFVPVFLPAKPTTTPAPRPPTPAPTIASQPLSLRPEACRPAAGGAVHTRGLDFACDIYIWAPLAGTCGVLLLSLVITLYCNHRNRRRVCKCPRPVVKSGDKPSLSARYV
T1 sequence (chain, as listed by the source): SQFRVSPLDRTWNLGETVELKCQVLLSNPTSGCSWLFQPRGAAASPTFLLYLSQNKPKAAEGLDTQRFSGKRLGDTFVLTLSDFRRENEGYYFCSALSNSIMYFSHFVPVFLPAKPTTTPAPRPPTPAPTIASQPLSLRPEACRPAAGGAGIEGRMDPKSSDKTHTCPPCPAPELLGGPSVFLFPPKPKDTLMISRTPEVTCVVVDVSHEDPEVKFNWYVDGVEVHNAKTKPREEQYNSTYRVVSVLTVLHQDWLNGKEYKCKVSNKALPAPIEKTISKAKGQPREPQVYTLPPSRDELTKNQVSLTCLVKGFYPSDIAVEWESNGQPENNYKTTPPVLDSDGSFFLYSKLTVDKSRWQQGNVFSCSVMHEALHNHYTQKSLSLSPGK

B1: phage clone No. 20 (C20) (VHH)
VHH: QVQLVESGGGLVQPGGSLRLSCAASGSIFSINTMGWYRQAPGKQRELVATMHSTGSTNYADSVKGRFTISRDNAKKTVYLQMNSLEPDDTAVYYCHVDDTGWGTVDSWGQGTQVTVS
In the case of B1, the OD450 with CD8α-Fc fusion protein was 3.19.

B2: anti-CD8α single domain antibody C20 (VHH, not shown: small tags and cut ends)
VHH: B1 VHH
notes: Only the E. coli expression is described for this antibody
As for B2, the “Positive rate (%)” value in assay [1] is 98.9%.

B3: phage clone No. 53 (S5) (VHH)
VHH: QVQLVESGGGLVQAGGSLRVSCAASGGTFSSTAMGWFRQAPGKEREFVAAISWSGGYTYYADSVRGRFTISRDNALNTVSLQMNSLKPEDTAVYYCAADISGLDTVAAGIFTEPNIDYWGKGTLVTVSS
On to B3, for which the OD450 with CD8α-Fc fusion protein came to 1.2.

B4: phage clone No. 29 (C29) (VHH)
VHH: QVQLVESGGGLVQAGGSLRLSCVASGFTSDDYVIGWFRQAPGKEREGVSCISSSDGTTNYADSVKGRFTISSDNAKNTVYLQMNSLKPEDTAVYYCAADPMRVCPYSGTYYGILGFGTSGQGTQVTVSS
For the molecule B4, in the assay with CD8α-Fc fusion protein, the OD450 was determined as 1.75.

B5: anti-CD8α single domain antibody S7 (VHH, not shown: small tags and cut ends)
VHH: QLQLVESGGGLVQPGGSLRLSCAASGSIFSINGMGWYRQAPGKQREAVAVITSGGKIDYLDSVKGRFTISRDSAKNTVALQMNSLKPEDTAVYYCNAYGDVRRGEVRWGQGTQVTVSS
notes: as for B2
As for B5, the “Positive rate (%)” value in assay [1] amounted to 99.3%.

B6: phage clone No. 55 (S7) (VHH)
VHH: B5 VHH
B6 displayed an OD450 with CD8α-Fc fusion protein of 1.61.

B7: phage clone No. 71 (S23) (VHH)
VHH: B5 VHH with L2V, A47L, V50A, I57T, R102Q
B7: the OD450 with CD8α-Fc fusion protein amounted to 1.62.

B8: anti-CD8α single domain antibody S23 (VHH, not shown: small tags and cut ends)
VHH: B5 VHH with L2V, A47L, V50A, I57T, R102Q
notes: as for B2
Regarding B8, in assay [1], the “Positive rate (%)” value was found to be 99.3%.

B9: phage clone No. 77 (S29) (VHH)
VHH: QLQLVESGGGLVQPGGSLRLSCTASGIIFSINTMGWYRQAPGKQRELVADISSFGSTNYADSVKGRFTISRDNAKNSVYLQMNSLKPEDTAVYYCNAHDKGWGTVDSWGQGTQVTVSS
Turning to B9, in the assay with CD8α-Fc fusion protein, the OD450 is 1.63.

B10: anti-CD8α single domain antibody S6 (VHH, not shown: small tags and cut ends)
VHH: QVQLVESGGGLVQPGGSLRLSCAVSGTIFSINTMGWYRQVPGKQRELVATITSSGSTKYADSVKGRFTVSRDNAKRTVFLQMDSLKPEDTAVYYCHANDVGWGTVNAWGQGTLVTVSS
notes: as for B2
Take B10: the “Positive rate (%)” value in assay [1] is 97.5%.

B11: phage clone No. 54 (S6) (VHH)
VHH: B10 VHH
Molecule B11 yielded an OD450 with CD8α-Fc fusion protein of 1.3.

B12: anti-CD8α single domain antibody S22 (VHH, not shown: small tags and cut ends)
VHH: QLQLVESGGGLVQPGGSLRLSCAASGSIFSINTMGWYRQAPGKQRELVATMHSTGSTNYADSVKGRFTISRDNAKKTVYLQMNSLKPDDTAVYYCHVDDMGWGTVDSWGQGTQVTVSS
notes: as for B2
Take B12: the “Positive rate (%)” value in assay [1] was determined as 97%.

B13: phage clone No. 70 (S22) (VHH)
VHH: B12 VHH
In the assay with CD8α-Fc fusion protein, B13 showed an OD450 of 1.73.

B14: anti-CD8α single domain antibody S32 (VHH, not shown: small tags and cut ends)
VHH: B12 VHH
notes: as for B2
For the molecule B14, the “Positive rate (%)” value in assay [1] worked out at 99.1%.

B15: phage clone No. 66 (S18) (VHH)
VHH: QLQLVESGGGLVQPGGSLRLSCAASGSIFSINTMGWYRQAPGKQRELVATMTSHGSTNYADSVKGRFTISRDNSKNTVYLQMNSLKLQDTAVYYCNANDMGWGTVDAWGQGTLVTVSS
In the case of B15, the OD450 with CD8α-Fc fusion protein is 1.72.

B16: phage clone No. 45 (C45) (VHH)
VHH: B12 VHH with L2V, S27P, A40V, M100T
In the assay with CD8α-Fc fusion protein, B16 returned an OD450 of 2.42.

B17: anti-CD8α single domain antibody C30 (VHH, not shown: small tags and cut ends)
VHH: B12 VHH with L2V, A23V, S30A, T50D, T77K, M100R
notes: as for B2
Take B17: the “Positive rate (%)” value in assay [1] turned out to be 98.8%.

B18: phage clone No. 61 (S13) (VHH)
VHH: B12 VHH with A23V, A24V, S30A, T54Y, D88A, V97A, M100T
B18 displayed an OD450 in the assay with CD8α-Fc fusion protein of 1.71.

B19: phage clone No. 24 (C24) (VHH)
VHH: B12 VHH with L2V, S27P, M100T, T112I
In the assay with CD8α-Fc fusion protein, B19 returned an OD450 of 2.35.

B20: anti-CD8α single domain antibody S18 (VHH, not shown: small tags and cut ends)
VHH: B15 VHH
notes: as for B2
Turning to B20, the “Positive rate (%)” value in assay [1] worked out at 99.2%.

B21: anti-CD8α single domain antibody C45 (VHH, not shown: small tags and cut ends)
VHH: B12 VHH with L2V, S27P, A40V, M100T
notes: as for B2
Take B21: the “Positive rate (%)” value in assay [1] worked out at 99.1%.

B22: phage clone No. 30 (C30) (VHH)
VHH: B12 VHH with L2V, A23V, S30A, T50D, T77K, M100R
In the case of B22, the OD450 in the assay with CD8α-Fc fusion protein is 2.03.

B23: phage clone No. 27 (C27) (VHH)
VHH: B12 VHH with A23V, A24V, S30A, T54G, N73A, K75P, D88A, V97A, M100S, T112I
The molecule B23 returned an OD450 in the assay with CD8α-Fc fusion protein of 2.74.

B24: phage clone No. 42 (C42) (VHH)
VHH: QVQLVESGGGLVQAGGSLRLSCAASGLTFEDYAIGWFRQAPGKEREGISCIRIYDGNTYSAESVKGRFTISSDNAKNQVYLQINTLKPEDTAVYYCAAGSYYSCSVYPDYDMDYWGKGTLVTVSS
B24 came in with an OD450 in the assay with CD8α-Fc fusion protein of 3.18.

B25: phage clone No. 2 (C2) (VHH)
VHH: B24 VHH with A14P, L27F, F29L, E30D, D31Y
Molecule B25 showed an OD450 in the assay with CD8α-Fc fusion protein of 3.21.

B26: phage clone No. 37 (C37) (VHH)
VHH: B24 VHH with V2L
B26 had an OD450 with CD8α-Fc fusion protein of 3.2.

B27: phage clone No. 46 (C46) (VHH)
VHH: QVQLVESGGGLVQAGGSLRLSCAASGVTFDDLAIGWFRQVPGKGREGVSTIGTSDGTAYYADSVKGRFTISSDNAKNTVYLQMNSLKPEDTAVYYCAVDLDYGLGSLLPMGYDYWGQGTQVTVSS
The molecule B27 came in with an OD450 with CD8α-Fc fusion protein of 2.35.
